Consider one substance from paper PMC5021334.

pKd: −log10 of the molar value.

In test [1] the target is GST-DENV3 NS5 residues 865-900 (Dengue virus serotype 3). In words: pull-down.
In test [2] the target is GST-DENV2 NS5 residues 865-900 (Dengue virus serotype 2). In words: pull-down.
Test [3] concerns the target GST-DENV4 NS5 residues 865-901 (Dengue virus serotype 4). In words: ELISA; solid-phase microtitre plate assay: GST-NLS from cell lysate captured on a glutathione coated plate and washed (PBS, 0.05% Tween-20); Impα in 2-fold serial dilutions in PBS from 12.5 μM, 1 h at RT; bound Impα detected with anti-6x His tag HRP antibody and TMB at 450 nm; one-site specific binding ….

Test [4] deals with GST-DENV1 NS5 residues 865-899 (Dengue virus serotype 1). Described as above.
The target in test [5] is GST-DENV3 NS5 residues 865-900 (Dengue virus serotype 3). The test is described as above.
The target of test [6] is GST-DENV2 NS5 residues 865-900 (Dengue virus serotype 2). The test is described as above.

Usually pKd stands for the negative decadic logarithm of the Kd, by convention in mol/L. Read a low pKd as a large Kd. With “mouse importin-α lacking the auto-inhibitory importin-β binding domain (Impα) (domain or fragment)”, the negative logarithm of the Kd (pKd) in test [1] was 6.43; in test [2], 6.57; in test [3], 4.73; in test [4], 4.27; in test [5], 6.18; in test [6], 5.34.
